Test results reported in publication PMC4408062.

Target: Recombinant human PCSK9 (proprotein convertase subtilisin/kexin type 9) (human) (UniProt Q8NBP7)
Sequence of UniProt Q8NBP7 (Q8NBP7 31-692): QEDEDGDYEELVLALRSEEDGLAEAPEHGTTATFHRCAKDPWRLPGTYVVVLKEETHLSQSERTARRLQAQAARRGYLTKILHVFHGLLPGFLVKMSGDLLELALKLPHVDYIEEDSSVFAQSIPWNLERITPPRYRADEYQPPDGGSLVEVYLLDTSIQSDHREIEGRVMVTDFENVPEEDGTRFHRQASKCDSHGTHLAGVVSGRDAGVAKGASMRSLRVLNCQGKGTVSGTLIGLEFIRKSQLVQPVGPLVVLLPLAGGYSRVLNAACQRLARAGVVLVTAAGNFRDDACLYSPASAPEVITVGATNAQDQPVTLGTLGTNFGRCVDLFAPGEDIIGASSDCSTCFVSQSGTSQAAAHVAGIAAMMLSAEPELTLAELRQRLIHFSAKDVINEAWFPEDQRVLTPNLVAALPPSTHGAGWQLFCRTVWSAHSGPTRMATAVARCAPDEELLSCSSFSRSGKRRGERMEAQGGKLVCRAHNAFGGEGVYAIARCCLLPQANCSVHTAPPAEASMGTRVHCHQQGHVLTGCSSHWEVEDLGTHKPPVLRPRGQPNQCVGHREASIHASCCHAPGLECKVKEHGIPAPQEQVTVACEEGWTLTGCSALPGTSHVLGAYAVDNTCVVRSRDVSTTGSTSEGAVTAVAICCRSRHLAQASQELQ

internalisation of PCSK9-488/J16 complexes in APLP2 siRNA treated HepG2 cells with 2.5 μg/ml LDL: 2.5 fold
Substance: LDL (low density lipoprotein particle)
